In patent US20130195884A1, “NOVEL MODULATORS OF TRAIL SIGNALLING” (Deutsches Krebsforschungszentrum, priority 2009, published 2013):

What was measured:
[1] = tested on: freshly isolated human hepatocytes; conditions: cited from earlier work
[2] = tested on: low-grade Non-Hodgkin Lymphoma (NHL); conditions: combination with rituximab, phase Ib, cited from earlier work
[3] = cited from earlier work
HeLa cells = assay: Titration of TRAIL-induced apoptosis, cell viability by ATP quantification (CellTiterGlo); format: cell-based, human
Procedure: FIG. 2: Titration curve for TRAIL-induced apoptosis. HeLa cells were stimulated with 0.001 to 1000 ng/ml TRAIL, followed by analysis of cell viability by the quantification of ATP (CelliterGlo® assay).
FIG. 5. TRAIL-induced cell death in HeLa cells can be rescued by siRNAs. (A) TRAIL induces apoptosis in HeLa cells. Membrane blebbing was observed after 1-2 hours and a complete loss of viable cells was detected after 24 hours. (B) The killing activity of TRAIL in HeLa cells is concentration dependent. (C) Silencing the TRAIL-R1 receptor and caspase-8 with siRNAs, rescued the apoptotic effect to 70% and 100% viability of untreated cells, respectively.
Cell viability was quantified by the measurement of ATP (CeIlTiterGlo® Luminescent Cell Viability Assay) or the quantification of mitochondrial activity (MTT assay). CellTiterGlo® Luminescent Cell Viability Assay was performed according to manufacturer's instructions. Briefly, 24 h after TRAIL treatment, CellTiterGlo® reagent was added to the medium. After mixing and shaking for 2 min, the luminescent signal was measured using Mithras LB 940 (Berthold Technologies, Bad Wildbad, Germany).
To determine the exact sensitivity to TRAIL-induced apoptosis, a dose-response curve ranging from 0.01 to 1000 ng/ml TRAIL was performed. Cell viability was quantified 24 h later by the CellTiterGlo® assay as this method is very sensitive, reproducible and applicable for high-throughput approaches. […] Maximum cell death is reached at TRAIL concentrations around 100 ng/ml (cf. FIG. 2).
The death-inducing ligand TRAIL triggers apoptosis in HeLa cells shortly after application (FIG. 5 A). During this process, the cytoplasm shrinks, the DNA condensates and the cell membrane starts blebbing, releasing fragments of the cell in a controlled manner (reviewed in Yasuhara 2007). […] This process was also monitored with a cell-based viability assay, quantifying cellular ATP-levels. TRAIL induced cell death in HeLa cells in a dose-dependant manner (FIG. 5 B).

In the case of “HIS-TRAIL: soluble TRAIL with an N-terminal polyhistidine tag”, the “Toxicity on freshly isolated human hepatocytes” value [1] is given as “considerable toxicity”.

For “rhApo2L/TRAIL: untagged version of recombinant soluble TRAIL, co-developed by Genentech and Amgen”, the “Serious adverse events of the combination” value [2] is listed as “two SAEs possibly related to the combination”, the Tumor response assessment ([2]; eight patients with low-grade NHL) is listed as “two showed complete response, one a partial response and five stable disease” and the “Toxicity in patients receiving the single agent” value [3] is listed as “no dose-limiting toxicity (DLT) or severe adverse effects (SAEs)”.

B1: TRAIL: death-inducing ligand, recombinant TRAIL used to trigger apoptosis in HeLa cells (protein, UniProt P50591 1-281, looked up)
Tumor necrosis factor ligand …: MAMMEVQGGPSLGQTCVLIVIFTVLLQSLCVAVTYVYFTNELKQMQDKYSKSGIACFLKEDDSYWDPNDEESMNSPCWQVKWQLRQLVRKMILRTSEETISTVQEKQQNISPLVRERGPQRVAAHITGTRGRSNTLSSPNSKNEKALGRKINSWESSRSGHSFLSNLHLRNGELVIHEKGFYYIYSQTYFRFQEEIKENTKNDKQMVQYIYKYTSYPDPILLMKSARNSCWSKDAEYGLYSIYQGGIFELKENDRIFVSVTNEHLIDMDHEASFFGAFLVG
In the case of B1, the “Membrane blebbing observed after” value (HeLa cells; HeLa cells after addition of TRAIL) is reported as 1 to 2 h, the “Viable cells left after TRAIL treatment” value (HeLa cells; HeLa cells, 100 ng/ml recombinant TRAIL, 24 hours) is reported as “no viable cells were left” and the “TRAIL concentration at which maximum cell death is reached” value (HeLa cells; HeLa cells, dose-response 0.01 to 1000 ng/ml TRAIL, viability after 24 h, CellTiterGlo) is reported as “around 100 ng/ml”.
